From patent US20120301468A1 (Bayer, published 2012)

How the values were obtained:
[1] = target: T1, human MN protein, entire extra-cellular domain with a C-terminal histag, expressed in HKB-11 cells (human, UniProt Q16790 38-414); test: BIAcore surface plasmon resonance; Fab captured on immobilized anti-human-Fab IgG, purified human MN (HKB-11) as analyte; 1:1 Langmuir fit
[2] = target: T1, human MN protein, entire extra-cellular …; test: SPR, BIAcore 3000, IgG captured by anti-human IgG Fc, MN as analyte, 1:1 Langmuir fit
[3] = target: T1, human MN protein, entire extra-cellular …; test: BIAcore surface plasmon resonance; IgG captured on immobilized goat anti-human IgG Fc, purified human MN (HKB-11) as analyte; 1:1 Langmuir fit
[4] = target: T2, MN protein on the surface of MN-expressing (MN+) cells (PC3 mm2, MaTu) (human, UniProt Q16790 38-459); test: FACS on PC3mm2 (MN+) cells with DLD (MN-) cells as negative cells; traces not labelled on the sheet
[5] = target: T1, human MN protein, entire extra-cellular …; test: Biacore (SPR), purified MN protein
[6] = target: T2, MN protein on the surface of …; test: cell-based or functional assay
[7] = target: T1, human MN protein, entire extra-cellular …; test: Biacore (SPR), purified MN protein; remark: listed apart in the source

| Binder | Kd [1] [nM] | Kd [2] [nM] | further results |
| --- | --- | --- | --- |
| 3bb2 Fab (Fab, V domains shown, Only CDRs are tied to the name) VH: ELVESGGGLVQPGGSLRLSCAASGFTFSNYGISWVRQAPGKGLEWVSAISYYGSNTYYADSVKGRFTISRDNSKNTLYLQMNSLRAEDTAVYYCARLKGGSGFVWGQGTLVTVSS VL: DIVMTQSPLSLPVTPGEPASISCRSSQSLVYSNGNTTLSWYLQKPGQSPQLLIYGVSNRASGVPDRFSGSGSGTDFTLKISRVEAEDVGVYYCQQYNSFPRTFGQGTKVEIK | 27 |  |  |
| 3ab4 Fab (Fab, V domains shown, Only CDRs are tied to the name) VH: ELVESGGGLVQPGGSLRLSCAASGFTFSSYGISWVRQAPGKGLEWVSGISYSGSSTYYADSVKGRFTISRDNSKNTLYLQMNSLRAEDTAVYYCARLKPYRHKNGWFDYWGQGTLVTVSS VL: DIQMTQSPSSLSASVGDRVTITCRASQNISNYLNWYQQKPGKAPKLLIHKVSNLQSGVPSRFSGSGSGTDFTLTISSLQPEDFAVYYCLQYDDFPRTFGQGTKVEIK | 50 |  |  |
| 5aa3 full-length human IgG1 (antibody, V domains shown, Full-length human IgG1 made from the Fab; Only CDRs are tied to the name) VH: QVELVQSGAEVKKPGESLKISCKGSGYSFTGYISWVRQAPGKGLEWMGIIYPGDSYTNYSPSFQGQVTISADKSISTAYLQWSSLKASDTAMYYCARYSGPNWDVMDSWGQGTLVTVSS VL: DIVLTQPPSVSGAPGQRVTISCSGSSSNIGSYYVNWYQQLPGTAPKLLIYADDKRPSGVPDRFSGSKSGTSASLAITGLQSEDEADYYCQSYDSTKDDSVFGGGTKLTVL |  | 1 |  |
| 3ef2 Fab (Fab, V domains shown, Only CDRs are tied to the name) VH: ELVESGGGLVQPGGSLRLSCAASGFTFSSYGMHWVRQAPGKGLEYVSAISYSSSSTSYADSVKGRFTISRDNSKNTLYLQMNSLRAEDTAVYYCARLSYTGFAVWGQGTLVTVSS VL: DIELTQPPSVSVAPGQTARISCSGDNLGSYYVHWYQQKPGQAPVLVIYDDNNRPSGIPERFSGSNSGNTATLTISGTQAEDEADYYCQSYDFGKVVFGGGTKLTVL | 4.1 |  |  |
| 1e4 Fab (Fab, V domains shown, Only CDRs are tied to the name) VH: ELVESGGGLVQPGGSLRLSCAASGFTFSNNAMNWVRQAPGKGLEWVSGISYDSSKTYYADSVKGRFTISRDNSKNTLYLQMNSLRAEDTAVYYCARLTYTGAYRWGQGTLVTVSS VL: DIELTQPPSVSVAPGQTARISCSGDNLGSYYVHWYQQKPGQAPVLVIYDDNNRPSGIPERFSGSNSGNTATLTISGTQAEDEADYYCQSYDFGKVVFGGGTKLTVL | 1.4 |  |  |
| 1e4 full-length human IgG1 (antibody, V domains shown, Full-length human IgG1 made from the Fab (IgG1 constant region PIR J00228); Only CDRs are tied to the name; also called monoclonal IgG1 1e4; anti-MN antibody 1e4) VH: ELVESGGGLVQPGGSLRLSCAASGFTFSNNAMNWVRQAPGKGLEWVSGISYDSSKTYYADSVKGRFTISRDNSKNTLYLQMNSLRAEDTAVYYCARLTYTGAYRWGQGTLVTVSS VL: DIELTQPPSVSVAPGQTARISCSGDNLGSYYVHWYQQKPGQAPVLVIYDDNNRPSGIPERFSGSNSGNTATLTISGTQAEDEADYYCQSYDFGKVVFGGGTKLTVL |  | 5 | Kd [3]: 1 nM |
| 3ef2 full-length human IgG1 (antibody, V domains shown, Full-length human IgG1 made from the Fab; Only CDRs are tied to the name) VH: QVELVESGGGLVQPGGSLRLSCAASGFTFSSYGMHWVRQAPGKGLEYVSAISYSSSSTSYADSVKGRFTISRDNSKNTLYLQMNSLRAEDTAVYYCARLSYTGFAVWGQGTLVTVSS VL: DIELTQPPSVSVAPGQTARISCSGDNLGSYYVHWYQQKPGQAPVLVIYDDNNRPSGIPERFSGSNSGNTATLTISGTQAEDEADYYCQSYDFGKVVFGGGTKLTVL |  | 6 |  |
| 3ah10 Fab (Fab, V domains shown, Only CDRs are tied to the name) VH: ELVESGGGLVQPGGSLRLSCAASGFTFSSYGISWVRQAPGKGLEWVSSISYSGSNTYYADSVKGRFTISRDNSKNTLYLQMNSLRAEDTAVYYCARMKPMRGYSGAVWGQGTLVTVSS VL: DIQMTQSPSSLSASVGDRVTITCRASQDISNRLAWYQQKPGKAPKLLIYDANSLQSGVPSRFSGSGSGTDFTLTISSLQPEDFATYYCFQYSGPTFGQGTKVEIK | 16 |  |  |
| 1aa1 Fab (Fab, V domains shown, Only CDRs are tied to the name) VH: ELVQSGAEVKKPGASVKVSCKASGYTFTTNYMHWVRQAPGQGLEWMGIINPHNGSTSYAQKFQGRVTMTRDTSISTAYMELSSLRSEDTAVYYCARGRYFLMDVWGQGTLVTVSS VL: DIQMTQSPSSLSASVGDRVTITCRASQNILSYLNWYQQKPGKAPKLLIYAASSLQSGVPSRFSGSGSGTDFTLTISSLQPEDFAVYYCQQYGSVPTFGQGTKVEIK | 0.15 |  |  |
| 1aa1 full-length human IgG1 (antibody, V domains shown, Full-length human IgG1 made from the Fab; Only CDRs are tied to the name) VH: QVELVQSGAEVKKPGASVKVSCKASGYTFTTNYMHWVRQAPGQGLEWMGIINPHNGSTSYAQKFQGRVTMTRDTSISTAYMELSSLRSEDTAVYYCARGRYFLMDVWGQGTLVTVSS VL: DIQMTQSPSSLSASVGDRVTITCRASQNILSYLNWYQQKPGKAPKLLIYAASSLQSGVPSRFSGSGSGTDFTLTISSLQPEDFAVYYCQQYGSVPTFGQGTKVEIK |  | 27 | Kd [3]: 49 nM |
| 1aa1 immunoconjugate (antibody, human IgG1, V domains shown, A cytotoxic drug (MMAE by paragraph 261) is conjugated to the IgG1. The chain and residues of attachment are not stated, and the letters do not carry the drug., Human IgG1 1aa1 conjugated to a cytotoxic drug; Only CDRs are tied to the name) VH: QVELVQSGAEVKKPGASVKVSCKASGYTFTTNYMHWVRQAPGQGLEWMGIINPHNGSTSYAQKFQGRVTMTRDTSISTAYMELSSLRSEDTAVYYCARGRYFLMDVWGQGTLVTVSS VL: DIQMTQSPSSLSASVGDRVTITCRASQNILSYLNWYQQKPGKAPKLLIYAASSLQSGVPSRFSGSGSGTDFTLTISSLQPEDFAVYYCQQYGSVPTFGQGTKVEIK |  |  | binding result [4]: binds |
| 3ee9 Fab (Fab, V domains shown, only the CDRs are tied) VH: ELVESGGGLVQPGGSLRLSCAASGFTFSSYGMSWVRQAPGKGLEWVSGISSLGSTTYYADSVKGRFTISRDNSKNTLYLQMNSLRAEDTAVYYCARTGSPGTFMHGDHWGQGTLVTVSS VL: DIQMTQSPSSLSASVGDRVTITCRASQDINNYLSWYQQKPGKAPKLLIYGASNLQSGVPSRFSGSGSGTDFTLTISSLQPEDFAVYYCQQYYGRPTTFGQGTKVEIK | 16 |  |  |
| 3ee9/MMAE (3ee9 human IgG1 conjugated to monomethylauristatin E) (antibody, V domains shown, Monomethylauristatin E (MMAE) is conjugated to the antibody through a linker (FIG. 9). The chain and residues of attachment are not stated, and the letters do not carry the drug., Only CDRs are tied to the name; also called BAY 79-4620; 3ee9-IC) VH: QVELVESGGGLVQPGGSLRLSCAASGFTFSSYGMSWVRQAPGKGLEWVSGISSLGSTTYYADSVKGRFTISRDNSKNTLYLQMNSLRAEDTAVYYCARTGSPGTFMHGDHWGQGTLVTVSS VL: DIQMTQSPSSLSASVGDRVTITCRASQDINNYLSWYQQKPGKAPKLLIYGASNLQSGVPSRFSGSGSGTDFTLTISSLQPEDFAVYYCQQYYGRPTTFGQGTKVEIKR |  |  | Kd [5]: 3.6 nM; Cytotoxicity: MN+/MN- (ec50) [6]: 50 nM |
| 3ee9 full-length human IgG1 (antibody, V domains shown, Only CDRs are tied to the name; also called unconjugated antibody 3ee9; antibody portion of 3ee9/MMAE) VH: QVELVESGGGLVQPGGSLRLSCAASGFTFSSYGMSWVRQAPGKGLEWVSGISSLGSTTYYADSVKGRFTISRDNSKNTLYLQMNSLRAEDTAVYYCARTGSPGTFMHGDHWGQGTLVTVSS VL: DIQMTQSPSSLSASVGDRVTITCRASQDINNYLSWYQQKPGKAPKLLIYGASNLQSGVPSRFSGSGSGTDFTLTISSLQPEDFAVYYCQQYYGRPTTFGQGTKVEIKR |  | 4 | Kd [3]: 5.9 nM; Kd [7]: 3.6 nM |
| 5a6 Fab (Fab, V domains shown, Only CDRs are tied to the name) VH: ELVQSGAEVKKPGESLKISCKGSGYSFSKYWIGWVRQMPGKGLEWMGIIYPTDSYTRYSPSFQGQVTISADKSISTAYLQWSSLKASDTAMYYCARTHGYYKNGRMDVWGQGTLVTVSS VL: not shown | 3.4 |  |  |
